Measured values taken from patent US20100061996.

B1: Lys-plasmin (protein)
chain: KVYLSECKTGNGKNYRGTMSKTKNGITCQKWSSTSPHRPRFSPATHPSEGLEENYCRNPDNDPQGPWCYTTDPEKRYDYCDILECEEECMHCSGENYDGKISKTMSGLECQAWDSQSPHAHGYIPSKFPNKNLKKNYCRNPDRELRPWCFTTDPNKRWELCDIPRCTTPPPSSGPTYQCLKGTGENYRGNVAVTVSGHTCQHWSAQTPHTHNRTPENFPCKNLDENYCRNPDGKRAPWCHTTNSQVRWEYCKIPSCDSSPVSTEQLAPTAPPELTPVVQDCYHGDGQSYRGTSSTTTTGKKCQSWSSMTPHRHQKTPENYPNAGLTMNYCRNPDADKGPWCFTTDPSVRWEYCNLKKCSGTEASVVAPPPVVLLPDVETPSEEDCMFGNGKGYRGKRATTVTGTPCQDWAAQEPHRHSIFTPETNPRAGLEKNYCRNPDGDVGGPWCYTTNPRKLYDYCDVPQCAAPSFDCGKPQVEPKKCPGRVVGGCVAHPHSWPWQVSLRTRFGMHFCGGTLISPEWVLTAAHCLEKSPRPSSYKVILGAHQEVNLEPHVQEIEVSRLFLEPTRKDIALLKLSSPAVITDKVIPACLPSPNYVVADRTECFITGWGETQGTFGAGLLKEAQLPVIENKVCNRYEFLNGRVQSTELCAGHLAGGTDSCQGDSGGPLVCFEKDKYILQGVTSWGLGCARPNKPGVYVRVSRFVTWIEGVMRNN
B2: matriptase protease domain (protein)
chain: VVGGTDADEGEWPWQVSLHALGQGHICGASLISPNWLVSAAHCYIDDRGFRYSDPTQWTAFLGLHDQSQRSAPGVQERRLKRIISHPFFNDFTFDYDIALLELEKPAEYSSMVRPICLPDASHVFPAGKAIWVTGWGHTQYGGTGALILQKGEIRVINQTTCENLLPQQITPRMMCVGFLSGGVDSCQGDSGGPLSSVEADGRIFQAGVVSWGDGCAQRNKPGVYTRLPLFRDWIKENTGV

Target: pro-uPA (pro-urokinase-type plasminogen activator, single-chain zymogen form of uPA), P00749

| Protein | cleavage of pro-uPA (SDS-PAGE, 1.5 uM pro-uPA, 15 nM plasmin) | k (first-order rate constant of pro-uPA activation) | kcat/Km of pro-uPA activation |
| --- | --- | --- | --- |
| B1 | cleavage of pro-uPA by plasmin generated identical fragments and with a time-course similar to hepsin | 0.0815 min⁻¹ | 453000 M⁻¹ s⁻¹ |
| B2 | – | 0.0142 min⁻¹ | 79000 M⁻¹ s⁻¹ |
